Laboratory results: article PMC5916551

Target: Transforming growth factor β1 (TGFβ1) (human) (UniProt P01137)
Test: SPR

Sequence of UniProt P01137 (P01137 279-390): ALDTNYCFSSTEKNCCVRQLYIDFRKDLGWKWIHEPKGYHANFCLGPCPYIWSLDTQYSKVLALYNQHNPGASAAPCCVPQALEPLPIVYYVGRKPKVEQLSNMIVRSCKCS

Question: How did the Kd turn out when Metelimumab (CAT192 IgG4) (antibody) was run?
Answer: Its Kd is 0.139 µM.
